Experimental data as given in IntAct's records for PubMed 21600204.

B1: Hemolysin expression-modulating protein Hha (Escherichia coli (strain K12)), P0ACE3 (parent)
chain: MSEKPLTKTDYLMRLRRCQTIDTLERVIEKNKYELSDNELAVFYSAADHRLAELTMNKLYDKIPSSVWKFIR
partner: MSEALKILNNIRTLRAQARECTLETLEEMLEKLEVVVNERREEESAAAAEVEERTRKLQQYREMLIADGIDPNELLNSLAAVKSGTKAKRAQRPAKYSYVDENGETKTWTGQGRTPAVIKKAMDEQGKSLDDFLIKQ
B2: OriC-binding nucleoid-associated protein (Escherichia coli (strain K12)), P64467 (parent)
chain: MTVQDYLLKFRKISSLESLEKLYDHLNYTLTDDQELINMYRAADHRRAELVSGGRLFDLGQVPKSVWHYVQ
partner: B1 partner

Variants of: B1
Conditions: with hns_ecoli hns
With MSEKPLTKTDYLMRLRRCQTIDTLQRVIEKNKYELSDNELAVFYSAADHRLAELTMNKLYDKIPSSVWKFIR [E25Q] the “effect of a mutation on the interaction” value was “decreasing interaction”.

Variants of: B1
Conditions: with hns_ecoli hns
Remark: another data set of the same source
With MSEKPLTKTDYLMRLRRCQTIDTLERVIEKNKYELSDNELAVFYSAANHRLAELTMNKLYDKIPSSVWKFIR [D48N] the “effect of a mutation on the interaction” value was “disrupting interaction”.

Variants of: B2
Conditions: with hns_ecoli hns
For MTVQDYLLKFRKISSLESLEKLYDHLNYTLTDDQELINMYRAANHRRAELVSGGRLFDLGQVPKSVWHYVQ [D44N], the “effect of a mutation on the interaction” value was “disrupting interaction”.
